Experimental data reported in US20240150490A1.

What was measured:
[1] = target: CA IX expressed by cells (C-33a_CA IX transfectants; hypoxic BT-20, JIMT-1, 8-MG-BA and 42-MG-BA cells) (human) (UniProt Q16790); assay: flow cytometry, M75 1 ug/ml and Alexa 488 secondary antibody, hypoxic BT-20 cells
[2] = target: CA IX expressed by cells (C-33a_CA IX transfectants; hypoxic BT-20, JIMT-1, 8-MG-BA and 42-MG-BA cells) (human) (UniProt Q16790); assay: flow cytometry, M75 1 ug/ml and Alexa 488 secondary antibody, hypoxic JIMT-1 cells

Work on mouse monoclonal antibody M75 yielded a median signal level of CA IX-staining [1] of 108 and a median signal level of CA IX-staining [2] of 86.8.
